# Experimental data published in the supplement of paper PMC12042874.
# ± gives the uncertainty stated by the source.
# Assay: amyloid nucleation score (Sup35N fusion, yeast selection) (log enrichment); library NNK3; higher = more nucleation; inactive = no reads after selection
# Summary of the method: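 The nucleation score is the log enrichment of output over input reads, calculated with DiMSum and centred on the mode score of non-aggregating sequences. Sequences with under 100 input reads were excluded. Reads came from Illumina sequencing of plasmid inserts from psi-negative yeast expressing Sup35N fused to peptides of 20 random codons, induced 24 hours with 100 μM copper sulfate and grown 7 days at 30°C without adenine and uracil.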
row,Substance,amyloid nucleation score
1,YVFVCIRPPLVGVHEFNSRS,-0.089 ± 0.56
2,MWACSKYRWMHATDGVGLTY,0.674 ± 0.17
3,MGLGGHIVLSGCSWFMYHIG,inactive
4,SFSKLVFR,inactive
5,KAYISVIGKLDYQNFSMKRF,2.41 ± 0.054
6,QHSGRWCGAPALGNLVAMSS,inactive
7,GVCKWFCESIDMTLRAVWAN,inactive
8,VYTGHVGLFV,inactive
9,IEGEYLVASAWRFLQSKHAH,inactive
10,DERLVYGEKSCRFSLSYANM,inactive
11,SFCFFRVTLSCTC,inactive
12,TRKMLLVVSKYVMTPYGFGL,inactive
13,YSIIVVL,1.39 ± 0.087
14,PNLYIMYGAFKIVLHSPDWG,inactive
15,IATTDIYAAYFYSLMQAIYR,inactive
16,FYVNPITEGMA,inactive
17,LIWQGCV,inactive
18,KLTHY,inactive
19,NLFYDFFDYMVSRARGGRVC,inactive
20,HQSISGWLVRGLTAGSGAVC,-0.496 ± 0.96
21,LSCHTKETFPDDG,inactive
22,GISWILSVGGCTSRAWLWSW,inactive
23,GREAGVIIWVRCLYFYVFER,inactive

row,Substance,amyloid nucleation score
1,YSDTFADNYLNCMHQVKCVN,inactive
2,GNSIALSE,inactive
3,CWAPHPKDRKPVRGNYSVHN,inactive
4,WGQCNELTMFFRFFLTFYIA,inactive
5,GDTRF,inactive
6,TWTMDSSLWMLWAVQVVEGR,inactive
7,EFAGCKRRMRKGPIIVPADV,inactive
8,PWKCTWFMALEVFRMYLRSF,inactive
9,YYIHCVWYNADKVYEG,2.37 ± 0.059
10,VFNSSKDLVSEKEPLRYMIG,inactive
11,NVVSWVNHACGWRDRSATMS,inactive
12,KIQTNCNFTC,2.5 ± 0.067
13,KWYRWCMYADDIESHLFGAL,inactive
14,QNFRFYLTCVSGSGHYRSYT,1.37 ± 0.093
15,HTGHHWNRLHETQNSRL,inactive
16,MSLWCTITGECKGDGWY,inactive
17,MMLDTWVTYPMREKLDAYRV,inactive
18,FDACLTERVVGISKDTDTSG,inactive
19,LYRLPRGYIRGGLLMLSS,inactive
20,YNLAGVFVIGHGNACATAFR,0.831 ± 0.3
21,FVDGVSYGTGTSSYKRTELY,inactive
22,ASDSCGG,inactive
23,SMYLYVAWARVLNDLDNID,inactive

row,Substance,amyloid nucleation score
1,WPSYSRLQTDFRGTGFFFRG,inactive
2,MWFAKAGTCNGSWLDMLSGW,inactive
3,FFNVELLMIDCGFYEFHTDD,2.1 ± 0.056
4,CSFIAGAPTSFWVVGLCWKY,-0.031 ± 0.72
5,FRVNKRHQYEEHVLLENLVF,inactive
6,HYVIV,inactive
7,GWGVHWFYIMVINHLF,inactive
8,LVMINCCHVFRKARSTAERQ,2.44 ± 0.071
9,NPSVPTQTPVDMWACTKG,inactive
10,VACRVVGNSSVWVFRRHVEN,inactive
11,GYVTCDLL,1.1 ± 0.11
12,CKRHLNYSVSRAKAEKINYL,inactive
13,SRLNWSRRWSLVSQNARRTS,inactive
14,GYYNSYQAELMTTACSDYVD,inactive
15,CTKWGGVSVISCQLAVSAKI,inactive
16,SRPVVRVINYYELGHIKVMS,inactive
17,FLGFEYILIAFRVGQYYLTG,inactive
18,YAVSLMIFGFWGSSMFSHPS,0.779 ± 0.11
19,TTNSQAWPMLTAVRLVYNEG,inactive
20,MLLCMILPK,2.26 ± 0.078
21,QHAQGYLRGSTMYFEMM,0.357 ± 0.25
22,CRYSLWSFSQMGEWMPRCER,inactive
23,VAETYLRTA,inactive

row,Substance,amyloid nucleation score
1,GSKESPKRYSSSALASVGVI,inactive
2,LERYRFKRNMSVIELHNKVM,inactive
3,RFGYKLFRSSVYGRGESYDY,inactive
4,SIFHLTSKVYISDWFC,2 ± 0.088
5,CIDSYLMYVFVAQQPGN,inactive
6,RRAGNKWYVR,inactive
7,YRRLCGDCGFGTLRLDLLFV,inactive
8,SLVSFFCHVGNKWFNHDFPI,inactive
9,FLSDSNT,inactive
10,YQSTVFGCYTYSRLKCLRSA,inactive
11,ERALIDSHPGTWLRRMTVNR,inactive
12,IFCAPRAEVSGSYYRGNVSV,inactive
13,KCMGVSWLSNIVRSIRVIIS,inactive
14,EIYCFRCVVIGIYYLVTIID,inactive
15,AGKHFAHSGLFLVCNYTSRT,inactive
16,YLYVRYTFRYWVVNYRYNNG,inactive
17,EKYWNN,inactive
18,QLDHGH,inactive
19,AMHHSNRSKPVSVIRWMWRC,inactive
20,CIILRVCTHLVKSSARLPAP,inactive
21,NFLRCVHFLKFFMDFNGTSG,inactive
22,GTWNVKAGGPYFKVVT,inactive
23,QYSYSPGCRYLKVMLSNNSE,inactive

row,Substance,amyloid nucleation score
1,GLSLNYCVLGYGLLTM,inactive
2,MYNLNVLNE,inactive
3,LGFLNWSRQGGV,0.947 ± 0.25
4,EPQYDSYTGGVSAFVVLKEH,inactive
5,ENYLSPTSKMTMIWGCILWW,inactive
6,MVKDCITRVYFVVWFDYSRS,inactive
7,GDLVLASAGYLVFGYLL,inactive
8,STNMFVCDGRTPTNYWLGIR,1.42 ± 0.14
9,SVKRDFFSLFRFVSNAVSED,inactive
10,SPICNEEYNNVDTCILWGYF,inactive
11,GLYSDNSVYTLQMFIEGAHH,0.4 ± 0.3
12,CDLDLLHGWCGNKRMGSCGR,inactive
13,LSRCVPNDVGKAYMMKEKRK,inactive
14,YKFEHVIFWNSFLNIKVEFS,1.56 ± 0.068
15,RFCRSSWMYPVEGQVGHIRE,inactive
16,NRRKLYKGSCGLTFRGSRER,inactive
17,AYIMDSSWWV,inactive
18,GESLQLECLYFTFIKMYVSL,inactive
19,SPLLNPGPSWF,inactive
20,DDCIKPYSLIYTQRHTPRDI,inactive
21,SFCMCGGLLVRSYRSFRFVR,inactive
22,TQDRYAISIRLVSTQLKLMS,inactive
23,HAVPVYD,-0.394 ± 1.9

row,Substance,amyloid nucleation score
1,YLGEHRVVVRNSMSPQPWLS,inactive
2,EAVSCWSRKNMVRYGNGDRA,inactive
3,VFWLKVSVSLFPVLYGRS,inactive
4,RSLDD,inactive
5,ILVKIVSWVHLKRTVGTDQD,inactive
6,LLLYLN,inactive
7,YYDHGNFRCMSTKRPVWQVF,inactive
8,IISCYTNKMIVVTWCYPLRR,0.116 ± 0.19
9,ASSLMQ,inactive
10,GGSFKVDNPKVTRAWISFFS,0.802 ± 0.13
11,STVVNSYMNFCACKGSNMAC,2.7 ± 0.068
12,LWSSDVEFLYGCASSCDFMG,inactive
13,YTAKYGGFISLYR,0.691 ± 0.15
14,ILSKVNSKSDKRSF,inactive
15,VFKSSGPAVTSYWY,inactive
16,ITSCCFVTLISVMSYGPCFG,2.45 ± 0.089
17,HALFGYISRVDNLYSSMVSH,inactive
18,MTLCLLSFRGQRSMPLYLWT,inactive
19,SRNPYLYQIHVYKVTGFLCC,2.51 ± 0.062
20,MYTQCLVYSR,inactive
21,SCVDLPWQMRLRHRKCQFDG,inactive
22,CMFKGHAELLRWVL,inactive
23,NLCRVMMFSFFTLLV,1.44 ± 0.1

row,Substance,amyloid nucleation score
1,GVVVWYSGDWTECMVVNRCD,0.78 ± 0.12
2,GICWY,inactive
3,ASSKCYINKRSNPGRRGLYG,inactive
4,ADMCPVDRRVLDLVSKRAMS,inactive
5,FGNLLVLSYDEDCNAATWVR,inactive
6,YFTNDQNKQGFHWMGYMSHI,inactive
7,FVSRGKLLPNAPGFMWFLLR,-0.533 ± 1.9
8,YPNDLTRVFDRDNNLLGTHG,0.551 ± 0.32
9,SWISR,inactive
10,FAKFAKSYNRPITVVLANCS,inactive
11,LLLWSAIIYK,inactive
12,YFENLVEVRQIATFKTV,inactive
13,RCLPMG,inactive
14,GYRLRYNFVVFLM,1.02 ± 0.21
15,SAVYIDA,inactive
16,SAFGTQGYCKSSVFPEASPR,inactive
17,GCYIVM,inactive
18,LSRYSRSTIILEHWCDTDWY,0.812 ± 0.24
19,TNVTANGVKPHPYPMRSPAT,inactive
20,VMCMCCISVHSTLMFLDITN,2.85 ± 0.063
